Source: patent US20240132575A1 (MEMO THERAPEUTICS, published 2024)
Substitutions are numbered along the chain they refer to. Read-outs that look alike come from different tables or passages of the source.

Assays:
[1] = target: T1, BKV serotype Ib VP1 on BK pseudovirus (VP1-Ib) (BK virus serotype Ib, UniProt P03088 1-362); experiment: cell-based or functional assay
T1 chain: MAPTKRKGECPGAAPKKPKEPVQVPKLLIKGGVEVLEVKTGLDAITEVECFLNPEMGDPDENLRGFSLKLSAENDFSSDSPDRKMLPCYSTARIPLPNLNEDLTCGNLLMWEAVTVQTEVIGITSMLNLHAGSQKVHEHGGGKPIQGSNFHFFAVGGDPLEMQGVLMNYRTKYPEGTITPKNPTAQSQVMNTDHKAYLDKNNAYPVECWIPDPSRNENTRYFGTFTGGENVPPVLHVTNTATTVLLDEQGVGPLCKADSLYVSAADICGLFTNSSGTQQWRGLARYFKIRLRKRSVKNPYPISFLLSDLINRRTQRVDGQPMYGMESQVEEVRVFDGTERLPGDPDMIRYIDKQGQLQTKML

[2] = target: T2, BKV serotype II VP1 on BK pseudovirus (VP1-II) (BK virus serotype II, UniProt P14996 1-362); experiment: cell-based or functional assay
T2 chain: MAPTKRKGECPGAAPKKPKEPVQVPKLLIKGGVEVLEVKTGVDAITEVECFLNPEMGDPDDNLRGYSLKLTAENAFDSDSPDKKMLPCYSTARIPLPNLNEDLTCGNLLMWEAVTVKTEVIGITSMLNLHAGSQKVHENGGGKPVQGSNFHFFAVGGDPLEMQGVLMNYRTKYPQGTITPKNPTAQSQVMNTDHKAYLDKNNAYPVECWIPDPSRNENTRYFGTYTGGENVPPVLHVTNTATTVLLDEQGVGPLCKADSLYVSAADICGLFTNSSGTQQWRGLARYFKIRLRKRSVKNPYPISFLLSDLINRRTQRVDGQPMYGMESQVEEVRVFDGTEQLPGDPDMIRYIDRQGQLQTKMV

[3] = target: T3, BKV serotype III VP1 on BK pseudovirus (VP1-III) (BK virus serotype III, UniProt P14996 1-362); experiment: cell-based or functional assay
T3 sequence: T2 chain with L68Q, K69H, T71S, D77E, K83R

[4] = target: T4, BKV serotype IV VP1 on BK pseudovirus (VP1-IVc) (BK virus serotype IV, UniProt P14996 1-362); experiment: cell-based or functional assay
T4 chain: T2 chain with D61N, N62D, K69R, N74T, K83R, V145I, Q175E, I178V, R215K, A284P

[5] = target: T5, BKV serotype Ia VP1 on BK pseudovirus (VP1-Ia) (BK virus serotype Ia, UniProt P03088 1-362); experiment: cell-based or functional assay
T5 chain: T1 chain with L42V, D82E, E175D, I210V

[6] = target: T1, BKV serotype Ib VP1 on BK pseudovirus …; experiment: cell-based or functional assay
[7] = target: T2, BKV serotype II VP1 on BK pseudovirus …; experiment: cell-based or functional assay
[8] = target: T3, BKV serotype III VP1 on BK pseudovirus …; experiment: cell-based or functional assay; remark: listed apart in the source
[9] = target: T4, BKV serotype IV VP1 on BK pseudovirus …; experiment: cell-based or functional assay
[10] = target: T5, BKV serotype Ia VP1 on BK pseudovirus …; experiment: cell-based or functional assay
JCV VP1 pentamer = target: T6, JCV VP1 pentamer (JC virus, UniProt P03089 23-292); experiment: ELISA on coated JCV-VP1 pentamer
T6 construct: also called JC-VP1; VP1 of the JC virus
T6 sequence (P03089 23-292 limits assumed): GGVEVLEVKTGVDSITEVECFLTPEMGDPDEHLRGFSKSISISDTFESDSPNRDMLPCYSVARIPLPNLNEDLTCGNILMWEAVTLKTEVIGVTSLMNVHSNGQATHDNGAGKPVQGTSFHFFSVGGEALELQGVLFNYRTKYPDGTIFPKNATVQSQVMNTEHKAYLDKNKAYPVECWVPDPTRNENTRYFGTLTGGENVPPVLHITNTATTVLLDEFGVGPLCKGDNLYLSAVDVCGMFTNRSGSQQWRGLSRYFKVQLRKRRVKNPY

[11] = target: T7, BKV serotype I VP1 pentamer (VP1-I) (BK virus serotype I, UniProt P03088 31-300); experiment: ELISA, VP1 pentamer coated, IgG titrated (EC50E)
T7 construct: also called BKV-VP1 serotype I
T7 chain: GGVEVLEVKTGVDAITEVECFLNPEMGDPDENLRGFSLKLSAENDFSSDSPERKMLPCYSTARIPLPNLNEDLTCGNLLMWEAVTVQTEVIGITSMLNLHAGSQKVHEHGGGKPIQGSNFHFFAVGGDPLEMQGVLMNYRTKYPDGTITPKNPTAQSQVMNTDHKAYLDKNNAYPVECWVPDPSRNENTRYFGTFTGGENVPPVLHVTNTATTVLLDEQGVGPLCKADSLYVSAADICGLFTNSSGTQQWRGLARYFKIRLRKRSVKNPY
Protocol: (§1) The binding of anti-BK virus antibodies to BKV-VP1 pentamers was analyzed by ELISA. […] Antibodies were serially diluted in PBS with 0.5% skim milk powder and added to the antigen-coated plates for 1.5 h. […] Plates were washed three times with PBS containing 0.05% Tween 20. The reaction was developed using 30 μl/well TMB liquid substrate (Sigma-Aldrich, #T0440) and stopped with 15 μl/well H₂SO₄. […] Data were fitted and apparent EC50 ELISA values (EC50E) were determined by three-parameter analysis in GraphPad Prism (GraphPad Software).

[12] = target: T8, BKV serotype II VP1 pentamer (VP1-II) (BK virus serotype II, UniProt P14996 31-300); experiment: ELISA, VP1 pentamer coated, IgG titrated (EC50E)
T8 construct: VP1 pentamer construct; also called BKV-VP1 serotype II
T8 chain: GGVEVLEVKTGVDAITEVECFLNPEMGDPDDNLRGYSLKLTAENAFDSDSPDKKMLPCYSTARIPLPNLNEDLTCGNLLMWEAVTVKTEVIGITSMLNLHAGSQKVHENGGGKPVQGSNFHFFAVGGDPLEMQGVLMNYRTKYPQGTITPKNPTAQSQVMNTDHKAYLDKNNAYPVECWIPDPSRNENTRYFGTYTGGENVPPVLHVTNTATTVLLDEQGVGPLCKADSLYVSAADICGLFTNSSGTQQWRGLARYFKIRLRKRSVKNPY
Protocol: as §1

[13] = target: T9, BKV serotype III VP1 pentamer (VP1-III) (BK virus serotype III, UniProt P14996 31-300); experiment: ELISA, VP1 pentamer coated, IgG titrated (EC50E)
T9 construct: also called BKV-VP1 serotype III
T9 sequence: T8 chain with L38Q, K39H, T41S, D47E, K53R
Protocol: as §1

[14] = target: T8, BKV serotype II VP1 pentamer (VP1-II); experiment: ELISA, VP1 pentamer coated, IgG titrated (EC50E)
Protocol: as §1

[15] = target: T9, BKV serotype III VP1 pentamer (VP1-III); experiment: ELISA, VP1 pentamer coated, IgG titrated (EC50E); remark: listed apart in the source
Protocol: as §1

[16] = target: T10, BKV serotype IV VP1 pentamer (VP1-IV) (BK virus serotype IV, UniProt P14996 31-300); experiment: ELISA, VP1 pentamer coated, IgG titrated (EC50E)
T10 construct: also called BKV-VP1 serotype IV
T10 chain: T8 chain with D31N, N32D, K39R, N44T, K53R, V115I, Q145E, I148V, A254P, L261M
Protocol: as §1

B1: comparative antibody P8D11 (WO 2017/046676) (antibody, human IgG1, lambda, V domains shown)
VH: QVQLVESGGTLVQPGGSLRLSCAASGFTFNNYWMTWVRQAPGKGLEWVANIKKDGSEKYYVDSVRGRFTISRDNAKNSLFLQMNSLRPEDTAVYFCATVRSGRYFALDDWGQGTLVTVSS
VL: QSVLTQPPSVSVAPGKTARITCGGDNIGSRPVHWYQQKPGQAPILVVYDDSNRPSGIPERFSGSNSGNTATLTISRVEAGDEADYYCQVWSSSTDHPFGGGTKVTVLG
notes: also called BM2
IC50 (nM), neutralization of BK-Pseudovirus (NanoLuc luciferase, 293TT cells) [1]: 0.392 nM | IC50 (nM), neutralization of BK-Pseudovirus (NanoLuc luciferase, 293TT cells) [2]: 0.565 nM | IC50 (nM), neutralization of BK-Pseudovirus (NanoLuc luciferase, 293TT cells) [3]: 0.176 nM | IC50 (nM), neutralization of BK-Pseudovirus (NanoLuc luciferase, 293TT cells) [4]: 2.91 nM | IC50 (nM), neutralization of BK-Pseudovirus (NanoLuc luciferase, 293TT cells) [5]: 0.391 nM | IC50 (nM), neutralization of BK-Pseudovirus (NanoLuc luciferase, 293TT cells) [6]: 0.392 nM | IC50 (nM), neutralization of BK-Pseudovirus (NanoLuc luciferase, 293TT cells) [7]: 0.565 nM | IC50 (nM), neutralization of BK-Pseudovirus (NanoLuc luciferase, 293TT cells) [8]: 0.176 nM | IC50 (nM), neutralization of BK-Pseudovirus (NanoLuc luciferase, 293TT cells) [9]: 2.91 nM | IC50 (nM), neutralization of BK-Pseudovirus (NanoLuc luciferase, 293TT cells) [10]: 0.391 nM | binding result (JCV VP1 pentamer): binds

B2: antibody 319C07 (antibody, human IgG1, kappa, V domains shown)
VH: QVQLQQWGAGLLKPSETLSLTCAVYRGSFSAYYWTWFRQPPGKGLEWIGEINHRGYTNYNPSLRGRVSISVDTSKKQFSLKLRSVNAADTAVYYCATLRSTSGWHDYFDYWGQGTLVTVSS
VL: EIVLTQSPGTLSLSPGERATLSCRASQSVSSSYLAWYQQTPGQAPRLLIYGASSRATGIPDRFSGSGSGTDFTLTISRLEPEDFVVYFCLQYGSSPLTFGPGTKVDIKR
notes: also called 319C7
IC50 (nM), neutralization of BK-Pseudovirus (NanoLuc luciferase, 293TT cells) [1]: 0.007 nM | IC50 (nM), neutralization of BK-Pseudovirus (NanoLuc luciferase, 293TT cells) [2]: 0.01 nM | IC50 (nM), neutralization of BK-Pseudovirus (NanoLuc luciferase, 293TT cells) [3]: 0.058 nM | IC50 (nM), neutralization of BK-Pseudovirus (NanoLuc luciferase, 293TT cells) [4]: 0.032 nM | IC50 (nM), neutralization of BK-Pseudovirus (NanoLuc luciferase, 293TT cells) [5]: 0.007 nM | binding result (JCV VP1 pentamer): no binding | EC50 [11]: 0.05 nM | EC50 [12]: 0.06 nM | EC50 [13]: 0.06 nM

B3: antibody 336F07 (antibody, human IgG1, kappa, V domains shown)
VH: EEPLLESGGGLVQPGGSLRLSCAASGFTFRLYAMNWVRQAPGKGLEWVSLISGSGTATYYADSVTGRFSISRDNYKNRVYLQMDSLRADDTATYYCAKTYPTWGGVVIGAIDVWGQGTTVTVSS
VL: DIQMTQSPSTLSASVGDRVTITCRASQSIQRWLAWHQQKPGRAPKVLIHDASTLESGVPSRFSGSGSGTEFTLTISSLQPDDFATYYCQQYNGHASTFGPGTKVDIKR
notes: also called 336FC07
IC50 (nM), neutralization of BK-Pseudovirus (NanoLuc luciferase, 293TT cells) [6]: 0.103 nM | IC50 (nM), neutralization of BK-Pseudovirus (NanoLuc luciferase, 293TT cells) [7]: 0.02 nM | IC50 (nM), neutralization of BK-Pseudovirus (NanoLuc luciferase, 293TT cells) [8]: 0.019 nM | IC50 (nM), neutralization of BK-Pseudovirus (NanoLuc luciferase, 293TT cells) [9]: 0.018 nM | IC50 (nM), neutralization of BK-Pseudovirus (NanoLuc luciferase, 293TT cells) [10]: 0.094 nM | binding result (JCV VP1 pentamer): no binding | EC50 [14]: 0.03 nM | EC50 [15]: 0.02 nM | EC50 [16]: 0.03 nM
